In IntAct's records for PubMed 8840966:

B1: Cyclin-dependent kinase 4 inhibitor C (Homo sapiens), P42773 (parent)
chain: MAEPWGNELASAAARGDLEQLTSLLQNNVNVNAQNGFGRTALQVMKLGNPEIARRLLLRGANPDLKDRTGFAVIHDAARAGFLDTLQTLLEFQADVNIEDNEGNLPLHLAAKEGHLRVVEFLVKHTASNVGHRNHKGDTACDLARLYGRNEVVSLMQANGAGGATNLQ

Variants of: B1
Conditions: with cdk6_human CDK6, Q00534
Chain of cdk6_human CDK6, Q00534 (Q00534 whole entry): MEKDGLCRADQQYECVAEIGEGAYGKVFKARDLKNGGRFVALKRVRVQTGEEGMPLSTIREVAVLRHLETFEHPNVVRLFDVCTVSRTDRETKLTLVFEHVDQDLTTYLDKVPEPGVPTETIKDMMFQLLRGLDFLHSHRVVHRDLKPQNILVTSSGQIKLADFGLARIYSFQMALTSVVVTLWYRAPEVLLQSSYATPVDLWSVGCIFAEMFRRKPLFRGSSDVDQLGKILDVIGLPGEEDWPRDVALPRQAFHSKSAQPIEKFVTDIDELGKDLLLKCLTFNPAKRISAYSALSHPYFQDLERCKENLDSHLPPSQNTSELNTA

effect of a mutation on the interaction | Variant
disrupting interaction | A72P
